Measured values: US20150132254A1 (MIT, published 2015)

T1: soluble murine CD25 (His-tagged recombinant mouse IL-2Rα/CD25, R&D Systems) (mouse, UniProt P01590 22-236, limits assumed)
T1 construct: Bought reagent, described only as soluble and His-tagged; also called soluble CD25; mouse CD25
T1 sequence (looked up): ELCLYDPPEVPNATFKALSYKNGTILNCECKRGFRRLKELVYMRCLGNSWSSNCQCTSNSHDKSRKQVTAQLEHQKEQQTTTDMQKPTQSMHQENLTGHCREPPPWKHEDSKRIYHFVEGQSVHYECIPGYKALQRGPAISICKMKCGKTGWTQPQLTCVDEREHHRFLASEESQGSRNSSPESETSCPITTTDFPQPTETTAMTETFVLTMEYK

B1: D265AFc/IL-2 (monovalent mouse IgG2a D265A Fc / wild-type mouse IL-2 heterodimer) (Fc fusion)
chain 1: EPRVPITQNPCPPLKECPPCAAPDLLGGPSVFIFPPKIKDVLMISLSPMVTCVVVAVSEDDPDVQISWFVNNVEVHTAQTQTHREDYNSTLRVVSALPIQHQDWMSGKEFKCKVNNRALPSPIEKTISKPRGPVRAPQVYVLPPPAEEMTKKEFSLTCMITGFLPAEIAVDWTSNGRTEQNYKNTATVLDSDGSYFMYSKLRVQKSTWERGSLFACSVVHEGLHNHLTTKTISRSLGKGGGSAPTSSSTSSSTAEAQQQQQQQQQQQQHLEQLLMDLQELLSRMENYRNLKLPRMLTFKFYLPKQATELKDLQCLEDELGPLRHVLDLTQSKSFQLEDAENFISNIRVTVVKLKGSDNTFECQFDDESATVVDFLRRWIAFCQSIISTSPQHHHHHH
chain 2: EPRVPITQNPCPPLKECPPCAAPDLLGGPSVFIFPPKIKDVLMISLSPMVTCVVVAVSEDDPDVQISWFVNNVEVHTAQTQTHREDYNSTLRVVSALPIQHQDWMSGKEFKCKVNNRALPSPIEKTISKPRGPVRAPQVYVLPPPAEEMTKKEFSLTCMITGFLPAEIAVDWTSNGRTEQNYKNTATVLDSDGSYFMYSKLRVQKSTWERGSLFACSVVHEGLHNHLTTKTISRSLGKGGGSDYKDDDDK
notes: also called D265A Fc/wt mIL-2
B2: wild-type murine IL-2 (yeast-displayed) (ligand)
chain: APTSSSTSSSTAEAQQQQQQQQQQQQHLEQLLMDLQELLSRMENYRNLKLPRMLTFKFYLPKQATELKDLQCLEDELGPLRHVLDLTQSKSFQLEDAENFISNIRVTVVKLKGSDNTFECQFDDESATVVDFLRRWIAFCQSIISTSPQ
notes: Aga2p fusion with HA and c-myc tags; also called mIL-2; mouse IL-2
B3: mIL-2 QQ 6.2-13 (yeast-displayed) (ligand)
chain: APTSSSTSSSTAEAQQQQQQQQQQQQHLEQLLMDLQELLSRMEDHRNLRLPRMLTFKFYLPEQATELKDLQCLEDELEPLRQVLDLTQSKSFQLEDAENFISNIRVTVVKLKGSDNTFECQFDDEPATVVDFLRRWIAFCQSIISTSPQ
notes: Selective-reversion mutant of a library 6.2 clone; also called reversion mutant
B4: mIL-2 QQ 6.2-4 (yeast-displayed) (ligand)
chain: APTSSSTSSSTAEAQQQQQQQQQQQQHLEQLLMDLQELLSRMEDSRNLRLPRMLTFKFYLPKQATELEDLQCLEDELEPLRQVLDLTQSKSFQLEDAENFISNIRVTVVKLKGSDNTFECQFDDEPATVVGFLRRWIAFCQSIISTSPQ
notes: as for B3
B5: mouse IL-2 E76G (yeast-displayed) (ligand)
chain: APTSSSTSSSTAEAQQQQQQQQQQQQHLEQLLMDLQELLSRMENYRNLKLPRMLTFKFYLPKQATELKDLQCLEDGLGPLRHVLDLTQSKSFQLEDAENFISNIRVTVVKLKGSDNTFECQFDDESATVVDFLRRWIAFCQSIISTSPQ
notes: also called E76G IL-2
B6: mouse IL-2 E76R (yeast-displayed) (ligand)
chain: APTSSSTSSSTAEAQQQQQQQQQQQQHLEQLLMDLQELLSRMENYRNLKLPRMLTFKFYLPKQATELKDLQCLEDRLGPLRHVLDLTQSKSFQLEDAENFISNIRVTVVKLKGSDNTFECQFDDESATVVDFLRRWIAFCQSIISTSPQ
notes: also called E76 mutant
B7: mouse IL-2 E76A (yeast-displayed) (ligand)
chain: APTSSSTSSSTAEAQQQQQQQQQQQQHLEQLLMDLQELLSRMENYRNLKLPRMLTFKFYLPKQATELKDLQCLEDALGPLRHVLDLTQSKSFQLEDAENFISNIRVTVVKLKGSDNTFECQFDDESATVVDFLRRWIAFCQSIISTSPQ
notes: also called E76A IL-2
B8: mouse IL-2 E76F (yeast-displayed) (ligand)
chain: APTSSSTSSSTAEAQQQQQQQQQQQQHLEQLLMDLQELLSRMENYRNLKLPRMLTFKFYLPKQATELKDLQCLEDFLGPLRHVLDLTQSKSFQLEDAENFISNIRVTVVKLKGSDNTFECQFDDESATVVDFLRRWIAFCQSIISTSPQ
notes: also called E76 mutant
B9: mIL-2 QQ 6.2-10 (yeast-displayed) (ligand)
chain: APTSSSTSSSTAEAQQQQQQQQQQQQHLEQLLMDLQELLSRMEDHRNLRLPRMLTFKFYLPEQATELEDLQCLEDELEPLRQVLDLTQSKSFQLEDAENFISNIRVTVVKLKGSDNTFECQFDDEPATVVDFLRRWIAFCQSIISTSPQ
notes: also called reversion mutant
B10: mIL-2 QQ 6.2-8 (yeast-displayed) (ligand)
chain: APTSSSTSSSTAEAQQQQQQQQHLEQLLMDLQELLSRMEDHRNLRLPRMLTFKFYLPKQATELEDLQCLEDELEPLRQVLDLTQSKSFQLEDAENFISNIRVTVVKLKGSDNTFECQFDDEPATVVDFLRRWIAFCQSIISTSPR
notes: as for B3
B11: mIL-2 QQ 6.2-11 (yeast-displayed) (ligand)
chain: APTSSSTSSSTAEAQQQQQQQQQHLEQLLMDLQELLSRMEDSRNLRLPRMLTFKFYLPEQATELKDLQCLEDELEPLRQVLDLTQSKSFQLEDAENFISNIRVTVVKLKGSDNTFECQFDDEPATVVDFLRRWIAFCQSIISTSPQ
notes: as for B3

What was measured:
[1] = biological target: T1, soluble murine CD25 (His-tagged …); test: not stated (legend of the schematic FIG. 5)
[2] = biological target: T1, soluble murine CD25 (His-tagged …); test: yeast surface display, flow cytometry
Description: EBY100 yeast harboring each of these clones were grown and induced as described (Chao et al. Nat Protocols 2006; 1(2):755-768). CD25 binding capacity was determined by labeling induced yeast with 50 nM soluble murine CD25 (R&D Systems). Proper protein folding was determined by labeling yeast displaying IL-2 variants before and after thermal denaturation with anti-mouse IL-2 antibodies. […] Anti-mouse IL-2 antibodies used were S4B6 (gift of Jianzhu Chen Lab, MIT), JES6-1A12, and JES6-5H4 (eBioscience).

[3] = biological target: T1, soluble murine CD25 (His-tagged …); test: yeast surface display, titration with soluble murine CD25
Description: The equilibrium dissociation constant of any particular clone was determined essentially as described (75). […] For picomolar affinity mutants of library 6.2, non-displaying EBY100 cells were spiked in at 90:10 to facilitate pelleting the low numbers of displaying cells. The equilibrium dissociation constant Kd was determined by fitting CD25 concentration and flow cytometry fluorescence data to the monovalent binding isotherm: […]

Binder | binding result [2] | binding result [3] | further results
B1 |  |  | Kd [1]: ~0.05 µM
B2 | binds |  | 
B3 |  | binds | 
B4 |  | binds | 
B5 | no binding (tested: 50 nM) |  | 
B6 | no binding (tested: 5 or 50 nM soluble CD25) |  | 
B7 | no binding (tested: 50 nM) |  | 
B8 | no binding (tested: 5 or 50 nM soluble CD25) |  | 
B9 |  | binds | 
B10 |  | binds | 
B11 |  | binds | 
